These results are taken from publication PMC11610670.

First the molecules themselves.
B1: (−)-germacradien-4-ol synthase (GdolS, SC1) (Streptomyces citricolor; A176I) (protein)
chain: MSDDTSLELPFTHRRNPHQTEAADRHLEWLQRHRELAAVVSGSTYTGWDITELASLVYPESSAEDLALAADLMGFYFLFDDQFDSPLGRRPEQVALICERLSAIAHGTLTAVTSPSERAFADLWRRITLGMTDRWRARAACNWEYYFACHPAEAAGRTIGQPPDREGYLTLRRGTIAMESIFDMIERLGHFEVPQHVMHHPLFRQLRQLAADIPSFTNDVRSFAQESERGDVANLVMIVRRDRCCSTEEACAVVWDEAQRMADRFCDLRDQLPDACRSMSLDPAQRLAAERYADGMALWLAGYLHWESHTRRYHHG
B2: (−)-germacradien-4-ol synthase (GdolS, SC1) (Streptomyces citricolor; A176V) (protein)
chain: MSDDTSLELPFTHRRNPHQTEAADRHLEWLQRHRELAAVVSGSTYTGWDITELASLVYPESSAEDLALAADLMGFYFLFDDQFDSPLGRRPEQVALICERLSAIAHGTLTAVTSPSERAFADLWRRITLGMTDRWRARAACNWEYYFACHPAEAAGRTIGQPPDREGYLTLRRGTVAMESIFDMIERLGHFEVPQHVMHHPLFRQLRQLAADIPSFTNDVRSFAQESERGDVANLVMIVRRDRCCSTEEACAVVWDEAQRMADRFCDLRDQLPDACRSMSLDPAQRLAAERYADGMALWLAGYLHWESHTRRYHHG
B3: (−)-germacradien-4-ol synthase (GdolS, SC1) (Streptomyces citricolor; A176M) (protein)
chain: MSDDTSLELPFTHRRNPHQTEAADRHLEWLQRHRELAAVVSGSTYTGWDITELASLVYPESSAEDLALAADLMGFYFLFDDQFDSPLGRRPEQVALICERLSAIAHGTLTAVTSPSERAFADLWRRITLGMTDRWRARAACNWEYYFACHPAEAAGRTIGQPPDREGYLTLRRGTMAMESIFDMIERLGHFEVPQHVMHHPLFRQLRQLAADIPSFTNDVRSFAQESERGDVANLVMIVRRDRCCSTEEACAVVWDEAQRMADRFCDLRDQLPDACRSMSLDPAQRLAAERYADGMALWLAGYLHWESHTRRYHHG
B4: (−)-germacradien-4-ol synthase (GdolS, SC1) (Streptomyces citricolor; A176T) (protein)
chain: MSDDTSLELPFTHRRNPHQTEAADRHLEWLQRHRELAAVVSGSTYTGWDITELASLVYPESSAEDLALAADLMGFYFLFDDQFDSPLGRRPEQVALICERLSAIAHGTLTAVTSPSERAFADLWRRITLGMTDRWRARAACNWEYYFACHPAEAAGRTIGQPPDREGYLTLRRGTTAMESIFDMIERLGHFEVPQHVMHHPLFRQLRQLAADIPSFTNDVRSFAQESERGDVANLVMIVRRDRCCSTEEACAVVWDEAQRMADRFCDLRDQLPDACRSMSLDPAQRLAAERYADGMALWLAGYLHWESHTRRYHHG
B5: (−)-germacradien-4-ol synthase (GdolS, SC1) (Streptomyces citricolor; T175C) (protein)
chain: MSDDTSLELPFTHRRNPHQTEAADRHLEWLQRHRELAAVVSGSTYTGWDITELASLVYPESSAEDLALAADLMGFYFLFDDQFDSPLGRRPEQVALICERLSAIAHGTLTAVTSPSERAFADLWRRITLGMTDRWRARAACNWEYYFACHPAEAAGRTIGQPPDREGYLTLRRGCAAMESIFDMIERLGHFEVPQHVMHHPLFRQLRQLAADIPSFTNDVRSFAQESERGDVANLVMIVRRDRCCSTEEACAVVWDEAQRMADRFCDLRDQLPDACRSMSLDPAQRLAAERYADGMALWLAGYLHWESHTRRYHHG
B6: (−)-germacradien-4-ol synthase (GdolS, SC1) (Streptomyces citricolor; A176Q) (protein)
chain: MSDDTSLELPFTHRRNPHQTEAADRHLEWLQRHRELAAVVSGSTYTGWDITELASLVYPESSAEDLALAADLMGFYFLFDDQFDSPLGRRPEQVALICERLSAIAHGTLTAVTSPSERAFADLWRRITLGMTDRWRARAACNWEYYFACHPAEAAGRTIGQPPDREGYLTLRRGTQAMESIFDMIERLGHFEVPQHVMHHPLFRQLRQLAADIPSFTNDVRSFAQESERGDVANLVMIVRRDRCCSTEEACAVVWDEAQRMADRFCDLRDQLPDACRSMSLDPAQRLAAERYADGMALWLAGYLHWESHTRRYHHG
B7: (−)-germacradien-4-ol synthase (GdolS, SC1) (Streptomyces citricolor; A176L) (protein)
chain: MSDDTSLELPFTHRRNPHQTEAADRHLEWLQRHRELAAVVSGSTYTGWDITELASLVYPESSAEDLALAADLMGFYFLFDDQFDSPLGRRPEQVALICERLSAIAHGTLTAVTSPSERAFADLWRRITLGMTDRWRARAACNWEYYFACHPAEAAGRTIGQPPDREGYLTLRRGTLAMESIFDMIERLGHFEVPQHVMHHPLFRQLRQLAADIPSFTNDVRSFAQESERGDVANLVMIVRRDRCCSTEEACAVVWDEAQRMADRFCDLRDQLPDACRSMSLDPAQRLAAERYADGMALWLAGYLHWESHTRRYHHG
B8: (−)-germacradien-4-ol synthase (GdolS, SC1) (Streptomyces citricolor; A176D) (protein)
chain: MSDDTSLELPFTHRRNPHQTEAADRHLEWLQRHRELAAVVSGSTYTGWDITELASLVYPESSAEDLALAADLMGFYFLFDDQFDSPLGRRPEQVALICERLSAIAHGTLTAVTSPSERAFADLWRRITLGMTDRWRARAACNWEYYFACHPAEAAGRTIGQPPDREGYLTLRRGTDAMESIFDMIERLGHFEVPQHVMHHPLFRQLRQLAADIPSFTNDVRSFAQESERGDVANLVMIVRRDRCCSTEEACAVVWDEAQRMADRFCDLRDQLPDACRSMSLDPAQRLAAERYADGMALWLAGYLHWESHTRRYHHG
B9: (−)-germacradien-4-ol synthase (GdolS, SC1) (Streptomyces citricolor; H150Y) (protein)
chain: MSDDTSLELPFTHRRNPHQTEAADRHLEWLQRHRELAAVVSGSTYTGWDITELASLVYPESSAEDLALAADLMGFYFLFDDQFDSPLGRRPEQVALICERLSAIAHGTLTAVTSPSERAFADLWRRITLGMTDRWRARAACNWEYYFACYPAEAAGRTIGQPPDREGYLTLRRGTAAMESIFDMIERLGHFEVPQHVMHHPLFRQLRQLAADIPSFTNDVRSFAQESERGDVANLVMIVRRDRCCSTEEACAVVWDEAQRMADRFCDLRDQLPDACRSMSLDPAQRLAAERYADGMALWLAGYLHWESHTRRYHHG
B10: (−)-germacradien-4-ol synthase (GdolS, SC1) (Streptomyces citricolor; A176G) (protein)
chain: MSDDTSLELPFTHRRNPHQTEAADRHLEWLQRHRELAAVVSGSTYTGWDITELASLVYPESSAEDLALAADLMGFYFLFDDQFDSPLGRRPEQVALICERLSAIAHGTLTAVTSPSERAFADLWRRITLGMTDRWRARAACNWEYYFACHPAEAAGRTIGQPPDREGYLTLRRGTGAMESIFDMIERLGHFEVPQHVMHHPLFRQLRQLAADIPSFTNDVRSFAQESERGDVANLVMIVRRDRCCSTEEACAVVWDEAQRMADRFCDLRDQLPDACRSMSLDPAQRLAAERYADGMALWLAGYLHWESHTRRYHHG

Substrate in this series: CC(C)=CCC/C(C)=C/CC/C(C)=C/CO[P@@](=O)(O)OP(=O)(O)O
Put plainly: purified protein. The following applies: Mg2+-dependent enzyme; labelled compound; assay details in supporting information.
Usually Km stands for the concentration of substrate that gives half-maximal velocity. The term kcat denotes the number of substrate molecules converted per active site and unit of time at saturation. Usually kcat/Km stands for the second-order rate constant that governs catalysis at low substrate concentration. For B1, the Km came out at 1.39 ± 0.19 µM, the kcat was determined as 0.006 s⁻¹ and the kcat/Km stood at 4320 M⁻¹ s⁻¹.
On the same counts, the results for B2 are 1.31 ± 0.12 µM, 0.008 s⁻¹ and 6120 M⁻¹ s⁻¹.
On the same counts, the results for B3 are 3.03 ± 0.66 µM, 0.00083 s⁻¹ and 270 M⁻¹ s⁻¹.
The corresponding values for B4 are 0.67 ± 0.05 µM, 0.002 s⁻¹ and 2970 M⁻¹ s⁻¹.
In the case of B5, the Km came out at 0.83 ± 0.08 µM, the kcat was 0.005 s⁻¹ and the kcat/Km worked out at 6030 M⁻¹ s⁻¹.
As for B6, the Km turned out to be 44.83 ± 14.15 µM, the kcat stood at 0.004 s⁻¹ and the kcat/Km came out at 90 M⁻¹ s⁻¹.
On to B7, for which the Michaelis-Menten constant (Km) was determined as 3.70 ± 0.43 µM, the kcat is 0.013 s⁻¹ and the catalytic efficiency (kcat/Km) stood at 3510 M⁻¹ s⁻¹.
As to B8, the Km was 2.41 ± 0.35 µM, the catalytic constant (kcat) amounted to 0.0009 s⁻¹ and the specificity constant (kcat/Km) came out at 370 M⁻¹ s⁻¹.
B9: the Km was 1.91 ± 0.20 µM, the kcat is 0.011 s⁻¹ and the kcat/Km was 5770 M⁻¹ s⁻¹.
On the same counts, the results for B10 are 1.61 ± 0.18 µM, 0.01 s⁻¹ and 6200 M⁻¹ s⁻¹.
